From patent publication US8524947B2, “Acylsulfonamides and processes for producing the same” (University of South Florida, priority 2008, dated 2013)

Legend:
Bcl-XL [1] = biological target: T1, Bcl-XL (Homo sapiens, UniProt Q07817); assay: Suppression of Bcl-XL-templated incubations of (SZ4) and (TA2) by BH3 peptides (LC/MS-SIM); type: biochemical; conditions: for amount of acylsulfonamide (SZ4TA2) in Bcl-XL incubations containing the peptide: compared to the Bcl-XL incubations containing wild type Bak BH3 and Bim peptides
T1 sequence (Q07817 whole entry): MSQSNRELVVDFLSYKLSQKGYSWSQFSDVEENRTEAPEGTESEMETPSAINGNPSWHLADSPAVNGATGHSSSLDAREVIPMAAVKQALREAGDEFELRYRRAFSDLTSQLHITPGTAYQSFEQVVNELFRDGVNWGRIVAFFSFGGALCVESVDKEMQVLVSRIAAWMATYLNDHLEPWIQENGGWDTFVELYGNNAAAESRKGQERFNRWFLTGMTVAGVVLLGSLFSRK
Description: In a 96-well plate, one thio acid building block (1 μL of a 2 mM solution in methanol) and one sulfonyl azide building block (1 μL of a 2 mM solution in methanol) were added to a solution of Bcl-XL (98 μL of a 2 μM Bcl-XL solution in buffer (58 mM Na2HPO4, 17 mM NaH2PO4, 68 mM NaCl, 1 mM NaN3, pH=7.40)). The 96-well plate was sealed and incubated at 38.5° C. for six hours. The incubation samples were then subjected to liquid chromatography combined with mass spectrometry analysis in the selected ion mode (LC-MS-SIM, Zorbax SB-C18 preceded by a Phenomenex C18 guard column, electrospray ionization and mass spectroscopic detection in the positive selected ion mode, tuned to the expected molecular mass of the product). The TGS hit compound was identified by the mass and retention time. As a control, identical building block combinations were incubated in buffer without Bcl-XL and subjected to LC/MS-SIM analysis. Comparison of the LC-MS-SIM chromatograms of these control incubations with the chromatograms of the Bcl-XL containing incubations allows to determine whether the protein is templating the corresponding amidation reactions or not. For the Bcl-XL containing incubation sample showing acylsulfonamide formation, a second control has been undertaken. Synthetically prepared acylsulfonamide was subjected to LC/MS-SIM analysis and the retention time was compared with the retention time identified in the Bcl-XL containing incubation.
Additional control experiments have been performed to test whether the Bcl-XL-templated reaction occurs at the BH3 binding site on Bcl-XL. Reactive building blocks (SZ4) and (TA2) were incubated with Bcl-XL and pro-apoptotic Bak BH3 peptide. Bak is one of the natural Bcl-XL ligands and theoretically competes with the reactive building blocks for binding on Bcl-XL during the incubations. The influence of Bak BH3 peptide on the Bcl-XL-templated reaction was studied at different ratios of Bak BH3 peptide and Bcl-XL (FIG. 10).
Additional control experiments have been performed with Bim, mutant Bim, and mutant Bak. […]

Bcl-XL [2] = biological target: T1, Bcl-XL; conditions: compared to wildtype Bak BH3 and Bim peptides; cited from earlier work

Bcl-XL-templated reaction (formation of SZ4TA2) (Bcl-XL [1]; 20 μM Bak BH3 peptide, (SZ4) and (TA2) with Bcl-XL, compared to the Bcl-XL incubation without Bak BH3)	amount of acylsulfonamide (SZ4TA2) in Bcl-XL incubations containing the peptide (Bcl-XL [1])	Substance	affinity towards Bcl-XL (Bcl-XL [2])
significantly suppressed	–	Bak BH3 peptide: pro-apoptotic Bak BH3 peptide, a natural Bcl-XL ligand; sequence CMGQVGRQLAIIGDDINRRYDS	–
–	increased amount	mutant Bak: mutant Bak BH3 peptide; sequence CMGQVGRQAAIIGADINRRYDS	lower affinity
–	increased amount	mutant Bim: mutant Bim BH3 peptide; sequence CEIWIAQEARRIGAEFNAYYAR	lower affinity
